From patent US20200317791A1 (Janssen / Centocor, published 2020)
Read-outs that look alike come from different tables or passages of the source.

Tests used:
[1] = target: T1, CW6W32 (rhHLA-Cw6/TRAT) (human); test: SPR ProteOn XPR36, captured mAb; valid kinetic fit;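 also: Anti-HLA-Cw6 mAbs captured at 100–200 RU, antigen flowed in PBST, 180 s association and 900 s dissociation, double-referenced sensorgrams globally fit to a 1:1 Langmuir model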
T1 construct: also called CW6W32.009; rHLA-Cw6/TRAT
Description: (§1) Anti-HLA-Cw6 mAbs were captured at ligand densities ranging from 100 to 200 response units. […] All analyses were conducted in PBST at 100 μL/min flow rate with association and dissociation times of 180 and 900 seconds, respectively. […] Analyte raw data was double referenced by subtraction of the blank surface response at “interspots” (to correct for refractive index changes and any non-specific interactions with the chip surface) and of the buffer blank response (to correct for any baseline drift resulting from mAb dissociation over time). Referenced data were globally fit to a 1:1 simple Langmuir binding model. Kinetic parameters were calculated for each mAb/antigen combination or interaction using Bio-Rad ProteOn Manager software (version 3.1.0.6) with parameter (kon, koff, Rmax) scope and type set to “Grouped” and “Fitted,” respectively.

[2] = target: T2, CW6W36 (rhHLA-Cw6/ADAMTSL5) (human); test: SPR ProteOn XPR36, captured mAb; valid kinetic fit;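 also: Anti-HLA-Cw6 mAbs captured at 100–200 RU, antigen flowed in PBST, 180 s association and 900 s dissociation, double-referenced sensorgrams globally fit to a 1:1 Langmuir model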
T2 construct: also called CW6W36.002; rHLA-Cw6/ADAMTSL5
Description: as §1

[3] = target: T3, CW6W3.ECO.PP.002/.003 (rhHLA-Cw6/ARF) (human); test: SPR ProteOn XPR36, captured mAb; valid kinetic fit;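 also: Anti-HLA-Cw6 mAbs captured at 100–200 RU, antigen flowed in PBST, 180 s association and 900 s dissociation, double-referenced sensorgrams globally fit to a 1:1 Langmuir model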
T3 construct: also called rhHLA-Cw6/ARFN; rHLA-Cw6/ARFN
Description: as §1

[4] = target: CW6W55.ECO.PP.002; test: SPR Biacore 8K, captured mAb; Kinetic fit not valid
[5] = target: CW6W54.001; test: as above
[6] = target: T1, CW6W32 (rhHLA-Cw6/TRAT); test: as above
[7] = target: T4, rhHLA-B7 stably expressed on K562 cells (K562-rhHLA-B7) (human, UniProt P01889 25-362); test: MSD cell binding
T4 construct: also called K562-rehHLA-B7
T4 sequence (P01889 25-362 limits assumed): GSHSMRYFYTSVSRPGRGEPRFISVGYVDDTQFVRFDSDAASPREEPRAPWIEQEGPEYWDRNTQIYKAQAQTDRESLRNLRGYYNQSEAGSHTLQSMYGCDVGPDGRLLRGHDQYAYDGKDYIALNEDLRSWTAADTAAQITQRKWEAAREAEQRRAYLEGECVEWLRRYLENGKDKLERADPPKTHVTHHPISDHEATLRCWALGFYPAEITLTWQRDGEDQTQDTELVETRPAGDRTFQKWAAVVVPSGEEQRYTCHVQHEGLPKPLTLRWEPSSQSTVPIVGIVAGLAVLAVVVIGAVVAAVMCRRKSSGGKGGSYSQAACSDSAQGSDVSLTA

[8] = target: T4, rhHLA-B7 stably expressed on K562 cells …; test: MSD cell binding; remark: listed apart in the source
Description: (§2) The blocking buffer was aspirated, 20 μl of prepared test antibodies were added to appropriate wells, and the plate was incubated further for 1 hour at RT. The plate was washed three times with 80 μl PBS, and then each well received 20 μl/well of a 1 μg/ml SulfoTag labeled secondary detection antibody solution. After a 1-hour incubation at RT, the plate was washed three times with 80 μl PBS, and 50 μl/well of a 1× MSD Read Buffer T (surfactant free) (MSD #R92TD-1) was added and the plate was read on an MSD Sector 600 Plate Reader.

[9] = target: T5, rhHLA-Cw6 stably expressed on K562 cells (K562-rhHLA-Cw6) (human, UniProt P10321 25-366); test: MSD cell binding
T5 construct: also called K562-HLA-Cw6
Description: as §2
T5 MHC heavy: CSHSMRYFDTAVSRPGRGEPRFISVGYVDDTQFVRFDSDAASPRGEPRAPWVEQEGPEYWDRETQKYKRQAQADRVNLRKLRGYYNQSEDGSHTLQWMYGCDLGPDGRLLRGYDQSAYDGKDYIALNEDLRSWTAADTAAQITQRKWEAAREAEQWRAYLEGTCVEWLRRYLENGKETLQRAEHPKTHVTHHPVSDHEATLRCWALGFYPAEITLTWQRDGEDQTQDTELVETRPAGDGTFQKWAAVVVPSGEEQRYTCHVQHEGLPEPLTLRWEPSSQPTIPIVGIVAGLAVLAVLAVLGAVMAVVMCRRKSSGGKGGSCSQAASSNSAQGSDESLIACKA

[10] = target: CW6W35.001; test: SPR Biacore 8K, captured mAb; Acceptable fit
Excerpt: (§3) To further characterize the ability of the antibodies to differentiate between class I MHC molecules.

[11] = target: CW6W51.001; test: SPR Biacore 8K, captured mAb; Acceptable fit
Excerpt: as §3

[12] = target: CW6W53.001; test: SPR Biacore 8K, captured mAb; Acceptable fit
Excerpt: as §3

[13] = target: CW6W56.ECO.PP.001; test: SPR Biacore 8K, captured mAb; Acceptable fit
Excerpt: as §3

[14] = target: CW6W47.001; test: SPR Biacore 8K, captured mAb; Acceptable fit
Excerpt: as §3

[15] = target: T2, CW6W36 (rhHLA-Cw6/ADAMTSL5); test: SPR Biacore 8K, captured mAb; Acceptable fit
Excerpt: as §3

[16] = target: T6, A24_A*24:02 (human, UniProt A*24:02); test: LABScreen beads
T6 construct: on LABScreen bead; also called HLA-A*24:02 (LABScreen class I bead)
T6 heavy chain: not shown

[17] = target: CW6W55.ECO.PP.002; test: SPR Biacore 8K, captured mAb; Acceptable fit
Excerpt: as §3

[18] = target: T6, A24_A*24:02; test: LABScreen beads

B1: CW6B233 (antibody, V domains shown)
VH: QVQLQESGPGLVKPSETLSLTCTVSGNSIRSYYWSWIRQPAGKGLEWIGRIYISGNTNYNPSLKSRVTMSIDTSKNQFSLKLSSVTAADTAVYYCARLSGIDAFDIWGQGTMVTVSS
VL: DIQMTQSPSSLSASVGDRVTITCQASQDITNYLNWYQQKPGKAPKLLIYDASNLETGVPSRFSGSGSGTDFTFTISSLQPEDFATYYCQQYDNLPITFGQGTRLEIK
notes: also called CW6B233.001; CW6M233 (DNA ID)
Kd [1]: 1.55 nM | koff [1]: 0.00234 s⁻¹ | kon [1]: 1.51e+06 M⁻¹ s⁻¹ | Kd [2]: 1 nM | koff [2]: 0.00355 s⁻¹ | kon [2]: 3.56e+06 M⁻¹ s⁻¹ | Kd [3]: 0.29 nM | koff [3]: 0.000293 s⁻¹ | kon [3]: 1.02e+06 M⁻¹ s⁻¹ | Kd [4]: 7.3 nM | koff [4]: 1.22 s⁻¹ | kon [4]: 1.67e+08 M⁻¹ s⁻¹ | Kd [5]: 0.798 nM | koff [5]: 0.000484 s⁻¹ | kon [5]: 607000 M⁻¹ s⁻¹ | Kd [6]: 3.73 nM | koff [6]: 0.00203 s⁻¹ | kon [6]: 544000 M⁻¹ s⁻¹ | binding result [7]: no binding | HLA-B7 Specific (K562-rhHLA-B7/K562 Parent binding signal) [8]: 0.8 ratio | HLA-Cw6 Selective (K562-rhHLA-Cw6 specific/K562-rhHLA-B7 specific) [9]: 44 ratio | HLA-Cw6 Specific (K562-rhHLA-Cw6/K562 Parent binding signal) [9]: 36 ratio | Kd [10]: 3.59 nM | koff [10]: 0.000758 s⁻¹ | kon [10]: 211000 M⁻¹ s⁻¹ | Kd [11]: 1.18 nM | koff [11]: 0.000514 s⁻¹ | kon [11]: 437000 M⁻¹ s⁻¹ | Kd [12]: 2.09 nM | koff [12]: 0.00073 s⁻¹ | kon [12]: 350000 M⁻¹ s⁻¹ | Kd [13]: 1.26 nM | koff [13]: 0.00107 s⁻¹ | kon [13]: 849000 M⁻¹ s⁻¹ | Kd [14]: 9.63 nM | koff [14]: 0.00801 s⁻¹ | kon [14]: 832000 M⁻¹ s⁻¹ | Kd [15]: 3.82 nM | koff [15]: 0.00433 s⁻¹ | kon [15]: 1.14e+06 M⁻¹ s⁻¹

B2: CW6B230 (antibody, V domains shown)
VH: QVQLQESGPGLVKPSETLSLTCTVSGNSISNYYWSWIRQPAGKGLEWIGRIYITGNTNYNPSLKSRVTMSLDTSKNQFSLKLSSVTAADTAVYYCARLSGIDAFDIWGQGTMVTVSS
VL: DIQMTQSPSTLSASVGDRVTFTCQASQDITKYLNWYQQKPGKAPKLLIYDASNLETGVPSRFSGSGSGTDFTFTISSLQPEDFATYYCQQYDDLPITFGQGTRLEIK
notes: also called CW6B230.001; CW6M230 (DNA ID)
Kd [5]: 1.4 nM | koff [5]: 0.000655 s⁻¹ | kon [5]: 467000 M⁻¹ s⁻¹ | binding result [16]: no binding (tested: 10 µg/ml) | Kd [17]: 8.9 nM | koff [17]: 0.00655 s⁻¹ | kon [17]: 737000 M⁻¹ s⁻¹ | Kd [13]: 2.07 nM | koff [13]: 0.00295 s⁻¹ | kon [13]: 1.42e+06 M⁻¹ s⁻¹

B3: CW6B228 (antibody, V domains shown)
VH: QVQLQESGPGLVKPSETLSLTCTVSGNSIRSYYWSWIRQPAGKGLEWIGRIYISGNTNYNPSLKSRVTMSIDTSKNQFSLKLSSVTAADTAVYYCARLSGIDAFDIWGQGTMVTVSS
VL: DIQMTQSPSSLSASVGDRVTITCQASQDINNYLNWYQQKPGKAPKLLIYDASSLETGVPSRFSGSGSGTDFTFTISSLQPEDFATYYCQQYDDLPITFGQGTRLEIK
notes: also called CW6B228.001; CW6M228 (DNA ID)
Kd [1]: 0.09 nM | koff [1]: 0.000534 s⁻¹ | kon [1]: 5.98e+06 M⁻¹ s⁻¹ | Kd [2]: 0.05 nM | koff [2]: 0.000732 s⁻¹ | kon [2]: 1.52e+07 M⁻¹ s⁻¹ | Kd [3]: 0.04 nM | koff [3]: 0.000178 s⁻¹ | kon [3]: 4.89e+06 M⁻¹ s⁻¹ | binding result [7]: no binding | HLA-B7 Specific (K562-rhHLA-B7/K562 Parent binding signal) [8]: 1 ratio | HLA-Cw6 Selective (K562-rhHLA-Cw6 specific/K562-rhHLA-B7 specific) [9]: 78 ratio | HLA-Cw6 Specific (K562-rhHLA-Cw6/K562 Parent binding signal) [9]: 75 ratio

B4: CW6B229 (antibody, V domains shown)
VH: QVQLQESGPGLVKPSETLSLTCTVSGNSIRSYYWSWIRQPAGKGLEWIGRIYISGNTNYNPSLKSRVTMSIDTSKNQFSLKLSSVTAADTAVFYCARLSGIDAFDIWGQGTMVTVSS
VL: DIQMTQSPSSLSASVGDRVTITCQASQDISNYLNWYQQKPGKAPKLLIYDASNLETGVPSRFSGSGSGTDFTFTISSLQPEDFATYYCQQYDNLPITFGQGTRLEIK
notes: also called CW6B229.001; CW6M229 (DNA ID)
Kd [4]: 7.1 nM | Kd [5]: 0.673 nM | koff [5]: 0.000465 s⁻¹ | kon [5]: 691000 M⁻¹ s⁻¹ | binding result [18]: no binding (tested: 10 µg/ml) | Kd [13]: 1.23 nM | koff [13]: 0.00127 s⁻¹ | kon [13]: 1.03e+06 M⁻¹ s⁻¹
